Experimental data as given in PMC12422955.

Molecular target: recombinant full-length NOE1–mScarlet-His (rat) (UniProt Q62609)
Experiment: SEC; FSEC, Superose 6 calibrated with mass markers; 5 nM full-length NOE1–mScarlet with 5–150 nM GluA4, or 1 nM with 1–100 nM CP-AMPARs; mScarlet fluorescence

recombinant full-length NOE1–mScarlet-His (rat), sequence (Q62609 25-485): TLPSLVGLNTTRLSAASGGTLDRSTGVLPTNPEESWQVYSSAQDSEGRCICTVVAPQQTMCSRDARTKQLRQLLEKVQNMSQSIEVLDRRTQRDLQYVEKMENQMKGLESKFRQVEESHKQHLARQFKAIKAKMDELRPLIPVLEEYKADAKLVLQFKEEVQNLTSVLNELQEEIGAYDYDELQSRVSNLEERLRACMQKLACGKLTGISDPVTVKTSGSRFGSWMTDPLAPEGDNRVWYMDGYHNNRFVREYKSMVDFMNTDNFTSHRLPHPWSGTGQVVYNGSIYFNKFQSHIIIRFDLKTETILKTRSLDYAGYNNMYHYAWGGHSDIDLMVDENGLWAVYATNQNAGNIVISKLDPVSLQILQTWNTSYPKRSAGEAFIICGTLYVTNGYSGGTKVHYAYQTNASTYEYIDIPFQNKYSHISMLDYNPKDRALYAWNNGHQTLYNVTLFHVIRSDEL

## native GluA1-containing CP-AMPARs purified from rat cerebellum (from UniProt P19490 19-907; P19493 21-902) (complex)
  stoichiometry N (receptors per NOE1 tetramer): 2
